From FireProtDB (doi:10.1021/acs.biochem.7b00833)

Settings: Bacillus subtilis (strain 168); pH 7; 25 °C; Urea; CD; Sodium Phosphate Buffer; whole UniProt chain shown

B1: SCO1 protein homolog wild type, P54178 (protein)
chain: MKVIKGLTAGLIFLFLCACGGQQIKDPLNYEVEPFTFQNQDGKNVSLESLKGEVWLADFIFTNCETICPPMTAHMTDLQKKLKAENIDVRIISFSVDPENDKPKQLKKFAANYPLSFDNWDFLTGYSQSEIEEFALKSFKAIVKKPEGEDQVIHQSSFYLVGPDGKVLKDYNGVENTPYDDIISDVKSASTLK
In the case of B1, the denaturant m value is reported as 3.51 kcal/mol/M, the “denaturant midpoint (higher = more stable)” value is reported as 2.91 M and the unfolding free energy is reported as 9.93 kcal/mol.
